The values below come from paper PMC6019658 (Protein & Cell, 2017).

This data set deals with the molecule itself. Put plainly: cryo-EM structure; single-particle cryo-EM of purified YnaI in amphipols; 20 mmol/L Mes pH 6.5, 200 mmol/L NaCl, 5 mmol/L DTT; 0.1 mg/mL on grids; homoheptamer.

B1: YnaI channel (MscS-like mechanosensitive channel of E. coli) (natural protein, UniProt P0AEB5 1-343, looked up)
chain: MIAELFTNNALNLVIIFGSCAALILMSFWFRRGNRKRKGFLFHAVQFLIYTIIISAVGSIINYVIENYKLKFITPGVIDFICTSLIAVILTIKLFLLINQFEKQQIKKGRDITSARIMSRIIKITIIVVLVLLYGEHFGMSLSGLLTFGGIGGLAVGMAGKDILSNFFSGIMLYFDRPFSIGDWIRSPDRNIEGTVAEIGWRITKITTFDNRPLYVPNSLFSSISVENPGRMTNRRITTTIGLRYEDAAKVGVIVEAVREMLKNHPAIDQRQTLLVYFNQFADSSLNIMVYCFTKTTVWAEWLAAQQDVYLKIIDIVQSHGADFAFPSQTLYMDNITPPEQGR
By stoichiometry N is commonly meant a count of units in the complex or per binding partner. As for B1, the “stoichiometry N” value amounted to 7.
